Experimental findings from publication PMC9380774, “Mpe1 senses the binding of pre-mRNA and controls 3′ end processing by CPF” (Molecular Cell, 2022) are described below.

Sequences and labels used below:
T1: Cft1 (S. cerevisiae, UniProt Q06632 1-1357)
T1 construct: Cft1, S. cerevisiae, subunit of the polymerase module of CPF; E. coli codon-optimized gene (GeneArt); source: Sf9, baculovirus, co-expressed with Mpe1-SII, in lysate; also as subunit of the purified polymerase module (Sf9)
T1 sequence: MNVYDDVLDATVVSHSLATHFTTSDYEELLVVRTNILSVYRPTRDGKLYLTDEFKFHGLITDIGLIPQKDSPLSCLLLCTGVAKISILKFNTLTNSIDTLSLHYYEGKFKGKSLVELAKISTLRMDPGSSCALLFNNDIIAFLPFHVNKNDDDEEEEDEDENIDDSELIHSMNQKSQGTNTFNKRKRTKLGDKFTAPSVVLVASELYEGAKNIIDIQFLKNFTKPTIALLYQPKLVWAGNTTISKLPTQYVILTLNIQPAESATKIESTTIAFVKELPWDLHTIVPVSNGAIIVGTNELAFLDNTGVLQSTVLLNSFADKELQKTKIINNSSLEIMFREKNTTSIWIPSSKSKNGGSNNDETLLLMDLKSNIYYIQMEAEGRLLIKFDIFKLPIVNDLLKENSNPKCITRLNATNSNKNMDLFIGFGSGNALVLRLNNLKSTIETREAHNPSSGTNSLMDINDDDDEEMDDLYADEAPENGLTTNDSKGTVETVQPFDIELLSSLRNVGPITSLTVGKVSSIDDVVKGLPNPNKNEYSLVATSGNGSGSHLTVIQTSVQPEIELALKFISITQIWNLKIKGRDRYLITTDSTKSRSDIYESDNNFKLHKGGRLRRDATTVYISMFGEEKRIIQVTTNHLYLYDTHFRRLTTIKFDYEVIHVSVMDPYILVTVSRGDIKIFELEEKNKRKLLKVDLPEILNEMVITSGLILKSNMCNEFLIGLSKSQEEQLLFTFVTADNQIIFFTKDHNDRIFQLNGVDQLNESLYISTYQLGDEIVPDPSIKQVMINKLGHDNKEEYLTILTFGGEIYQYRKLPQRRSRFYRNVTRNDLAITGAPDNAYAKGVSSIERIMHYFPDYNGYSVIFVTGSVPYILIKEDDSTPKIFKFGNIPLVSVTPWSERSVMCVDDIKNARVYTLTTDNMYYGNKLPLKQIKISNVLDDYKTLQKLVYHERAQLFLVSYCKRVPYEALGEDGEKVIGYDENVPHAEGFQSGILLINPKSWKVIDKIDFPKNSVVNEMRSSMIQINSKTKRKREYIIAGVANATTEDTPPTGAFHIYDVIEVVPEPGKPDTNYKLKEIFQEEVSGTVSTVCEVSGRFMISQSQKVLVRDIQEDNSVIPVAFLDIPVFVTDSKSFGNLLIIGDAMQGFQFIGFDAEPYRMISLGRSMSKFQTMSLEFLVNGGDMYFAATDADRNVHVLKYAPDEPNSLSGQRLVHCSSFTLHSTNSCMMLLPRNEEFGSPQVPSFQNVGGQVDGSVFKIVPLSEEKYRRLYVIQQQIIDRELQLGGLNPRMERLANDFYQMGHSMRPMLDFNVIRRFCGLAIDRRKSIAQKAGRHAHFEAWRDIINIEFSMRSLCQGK

B1: Yth1 (natural protein, S. cerevisiae)
chain: MSLIHPDTAKYPFKFEPFLRQEYSFSLDPDRPICEFYNSREGPKSCPRGPLCPKKHVLPIFQNKIVCRHWLRGLCKKNDQCEYLHEYNLRKMPECVFFSKNGYCTQSPDCQYLHIDPASKIPKCENYEMGFCPLGSSCPRRHIKKVFCQRYMTGFCPLGKDECDMEHPQFIIPDEGSKLRIKRDDEINTRKMDEEKERRLNAIINGEV
notes: Yth1, S. cerevisiae, subunit of the polymerase module of CPF; E. coli codon-optimized gene (GeneArt); source: Sf9, baculovirus, co-expressed with Mpe1-SII, in lysate; also as subunit of the purified polymerase module (Sf9)
B2: Pfs2 (natural protein, S. cerevisiae)
chain: MDGHNQNQYQNQNQIQQSQQPPLKKYVTQRRSVDVSSPYINLYYNRRHGLPNLVVEPETSYTIDIMPPNAYRGRDRVINLPSKFTHLSSNKVKHVIPAIQWTPEGRRLVVATYSGEFSLWNASSFTFETLMQAHDSAVTTMKYSHDSDWMISGDADGMIKIWQPNFSMVKEIDAAHTESIRDMAFSSNDSKFVTCSDDNILKIWNFSNGKQERVLSGHHWDVKSCDWHPEMGLIASASKDNLVKLWDPRSGNCISSILKFKHTVLKTRFQPTKGNLLMAISKDKSCRVFDIRYSMKELMCVRDETDYMTLEWHPINESMFTLACYDGSLKHFDLLQNLNEPILTIPYAHDKCITSLSYNPVGHIFATAAKDRTIRFWTRARPIDPNAYDDPTYNNKKINGWFFGINNDINAVREKSEFGAAPPPPATLEPHALPNMNGFINKKPRQEIPGIDSNIKSSTLPGLSI
notes: Pfs2, S. cerevisiae, subunit of the polymerase module of CPF; E. coli codon-optimized gene (GeneArt); source: Sf9, baculovirus, co-expressed with Mpe1-SII, in lysate; also as subunit of the purified polymerase module (Sf9)
B3: StrepII-tagged Mpe1 (Mpe1-SII) (natural protein, S. cerevisiae)
chain: MSSTIFYRFKSQRNTSRILFDGTGLTVFDLKREIIQENKLGDGTDFQLKIYNPDTEEEYDDDAFVIPRSTSVIVKRSPAIKSFSVHSRLKGNVGAAALGNATRYVTGRPRVLQKRQHTATTTANVSGTTEEERIASMFATQENQWEQTQEEMSAATPVFFKSQTNKNSAQENEGPPPPGYMCYRCGGRDHWIKNCPTNSDPNFEGKRIRRTTGIPKKFLKSIEIDPETMTPEEMAQRKIMITDEGKFVVQVEDKQSWEDYQRKRENRQIDGDETIWRKGHFKDLPDDLKCPLTGGLLRQPVKTSKCCNIDFSKEALENALVESDFVCPNCETRDILLDSLVPDQDKEKEVETFLKKQEELHGSSKDGNQPETKKMKLMDPTGTAGLNNNTSLPTSVNNGGTPVPPVPLPFGIPPFPMFPMPFMPPTATITNPHQADASPKK
notes: Mpe1, S. cerevisiae, subunit of the nuclease module of CPF; no cleavage is told; also called WT Mpe1; Mpe1-3C-SII; source: Sf9, baculovirus; in lysate, and purified (Strep-Tactin, MonoQ)
B4: Cft2(S), residues 1-720 (domain or fragment, S. cerevisiae, UniProt Q12102 1-720, looked up)
chain: MTYKYNCCDDGSGTTVGSVVRFDNVTLLIDPGWNPSKVSYEQCIKYWEKVIPEIDVIILSQPTIECLGAHSLLYYNFTSHFISRIQVYATLPVINLGRVSTIDSYASAGVIGPYDTNKLDLEDIEISFDHIVPLKYSQLVDLRSRYDGLTLLAYNAGVCPGGSIWCISTYSEKLVYAKRWNHTRDNILNAASILDATGKPLSTLMRPSAIITTLDRFGSSQPFKKRSKIFKDTLKKGLSSDGSVIIPVDMSGKFLDLFTQVHELLFESTKINAHTQVPVLILSYARGRTLTYAKSMLEWLSPSLLKTWENRNNTSPFEIGSRIKIIAPNELSKYPGSKICFVSEVGALINEVIIKVGNSEKTTLILTKPSFECASSLDKILEIVEQDERNWKTFPEDGKSFLCDNYISIDTIKEEPLSKEETEAFKVQLKEKKRDRNKKILLVKRESKKLANGNAIIDDTNGERAMRNQDILVENVNGVPPIDHIMGGDEDDDEEEENDNLLNLLKDNSEKSAAKKNTEVPVDIIIQPSAASKHKMFPFNPAKIKKDDYGTVVDFTMFLPDDSDNVNQNSRKRPLKDGAKTTSPVNEEDNKNEEEDGYNMSDPISKRSKHRASRYSGFSGTGEAENFDNLDYLKIDKTLSKRTISTVNVQLKCSVVILNLQSLVDQRSASIIWPSLKSRKIVLSAPKQIQNEEITAKLIKKNIEVVNMPLNKIVEFSTTI
notes: Cft2, S. cerevisiae, residues 1-720, lacks the disordered C-terminal region; also called Cft2(short); truncated version of Cft2; source: E. coli BL21 Star (DE3), purified (Ni-NTA, 3C cleavage, MonoQ, Superdex 200)
B5: Cft2 (untagged, co-expressed with the polymerase module) (natural protein, S. cerevisiae, UniProt Q12102 1-859, looked up)
chain: MTYKYNCCDDGSGTTVGSVVRFDNVTLLIDPGWNPSKVSYEQCIKYWEKVIPEIDVIILSQPTIECLGAHSLLYYNFTSHFISRIQVYATLPVINLGRVSTIDSYASAGVIGPYDTNKLDLEDIEISFDHIVPLKYSQLVDLRSRYDGLTLLAYNAGVCPGGSIWCISTYSEKLVYAKRWNHTRDNILNAASILDATGKPLSTLMRPSAIITTLDRFGSSQPFKKRSKIFKDTLKKGLSSDGSVIIPVDMSGKFLDLFTQVHELLFESTKINAHTQVPVLILSYARGRTLTYAKSMLEWLSPSLLKTWENRNNTSPFEIGSRIKIIAPNELSKYPGSKICFVSEVGALINEVIIKVGNSEKTTLILTKPSFECASSLDKILEIVEQDERNWKTFPEDGKSFLCDNYISIDTIKEEPLSKEETEAFKVQLKEKKRDRNKKILLVKRESKKLANGNAIIDDTNGERAMRNQDILVENVNGVPPIDHIMGGDEDDDEEEENDNLLNLLKDNSEKSAAKKNTEVPVDIIIQPSAASKHKMFPFNPAKIKKDDYGTVVDFTMFLPDDSDNVNQNSRKRPLKDGAKTTSPVNEEDNKNEEEDGYNMSDPISKRSKHRASRYSGFSGTGEAENFDNLDYLKIDKTLSKRTISTVNVQLKCSVVILNLQSLVDQRSASIIWPSLKSRKIVLSAPKQIQNEEITAKLIKKNIEVVNMPLNKIVEFSTTIKTLDISIDSNLDNLLKWQRISDSYTVATVVGRLVKESLPQVNNHQKTASRSKLVLKPLHGSSRSHKTGALSIGDVRLAQLKKLLTEKNYIAEFKGEGTLVINEKVAVRKINDAETIIDGTPSELFDTVKKLVTDMLAKI
notes: Cft2, S. cerevisiae, pseudo-nuclease subunit of the nuclease module of CPF; source: Sf9, co-infected with viruses for the polymerase module (Pfs2-SII) and Ysh1-Cft2; in lysate, and co-purified with the polymerase module (Strep-Tactin, MonoQ)

The target of assay [1] is B4. Kind of assay: cross-linking; polymerase module-Cft2(S)-Mpe1-RNA complex (0.5 mg/ml) with 2 mM sulfo-SDA for 2 h on ice, UV 365 nm for 15 min; 20 mM HEPES, 50 mM NaCl, 0.5 mM TCEP, pH 8.0; mass spectrometry, 1 % FDR on link level. As to conditions: both partners purified.
Assay [2] concerns the target B4. Kind of assay: cryo-EM structure; sample of polymerase module, Mpe1, Cft2(S) and precleaved CYC1 RNA; only the polymerase module and the yPIM of Cft2 are seen in the map. The following applies: both partners purified.
Assay [3] deals with T2, S. cerevisiae polymerase module with an SII tag on Pfs2 (S. cerevisiae, UniProt Q06632 1-1357; P29468 1-568; P42841 1-465; P45976 1-327; Q06102 2-208).
T2 construct: Cft1, S. cerevisiae; Pap1, S. cerevisiae; Pfs2, S. cerevisiae; Fip1, S. cerevisiae; Yth1, S. cerevisiae; That Construct B is the plasmid of this co-infection is surmised from the SII tag on Pfs2; also called Construct B (Cft1-Pap1-Pfs2-SII-Fip1-Yth1); source: Sf9, co-infected with a virus for untagged Cft2 and Ysh1; in lysate, and purified with Cft2 (Strep-Tactin, MonoQ); copies: + + + +
Put plainly: SEC; analytical, Superose 6 Increase 3.2/300, SEC 50 buffer (20 mM HEPES pH 8, 50 mM NaCl, 0.5 mM TCEP); 5 μM polymerase module or polymerase module-Cft2 complex, 15 μM Mpe1 or variant, 10 μM Cft2(S) or 720 μM yPIM peptide; with or without 10 μM precleaved CYC1 RNA. The following applies: both partners purified.

A further assay concerns the target T1, Cft1. Kind of assay: cryo-EM structure; sample of polymerase module, Mpe1, Cft2(S) and precleaved CYC1 RNA; only the polymerase module and the yPIM of Cft2 are seen in the map. The following applies: both partners purified.
In assay [4] the target is T2, S. cerevisiae polymerase module with an …. Put plainly: pull-down; Sf9 cells co-infected with viruses for the polymerase module (SII on Pfs2) and for untagged Cft2 and Ysh1; Strep-Tactin in Buffer A, then MonoQ. The following applies: partners not purified.

T2 sequence (P29468 whole entry, chain 2 of 2): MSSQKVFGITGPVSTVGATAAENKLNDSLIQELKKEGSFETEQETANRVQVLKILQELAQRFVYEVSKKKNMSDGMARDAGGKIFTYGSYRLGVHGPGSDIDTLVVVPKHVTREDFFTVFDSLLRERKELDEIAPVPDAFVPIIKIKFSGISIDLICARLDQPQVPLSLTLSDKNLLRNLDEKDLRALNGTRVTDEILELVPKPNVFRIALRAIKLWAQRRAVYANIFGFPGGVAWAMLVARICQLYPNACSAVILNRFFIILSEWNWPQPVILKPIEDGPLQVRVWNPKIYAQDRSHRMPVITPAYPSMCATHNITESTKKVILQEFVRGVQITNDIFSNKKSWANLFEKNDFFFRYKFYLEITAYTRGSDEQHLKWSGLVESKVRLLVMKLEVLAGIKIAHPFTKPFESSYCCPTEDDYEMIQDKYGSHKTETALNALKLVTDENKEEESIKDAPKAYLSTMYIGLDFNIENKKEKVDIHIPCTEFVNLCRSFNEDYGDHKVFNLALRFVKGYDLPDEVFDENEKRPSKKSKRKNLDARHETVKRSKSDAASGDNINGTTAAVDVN
T2 sequence (P45976 whole entry, chain 4 of 2): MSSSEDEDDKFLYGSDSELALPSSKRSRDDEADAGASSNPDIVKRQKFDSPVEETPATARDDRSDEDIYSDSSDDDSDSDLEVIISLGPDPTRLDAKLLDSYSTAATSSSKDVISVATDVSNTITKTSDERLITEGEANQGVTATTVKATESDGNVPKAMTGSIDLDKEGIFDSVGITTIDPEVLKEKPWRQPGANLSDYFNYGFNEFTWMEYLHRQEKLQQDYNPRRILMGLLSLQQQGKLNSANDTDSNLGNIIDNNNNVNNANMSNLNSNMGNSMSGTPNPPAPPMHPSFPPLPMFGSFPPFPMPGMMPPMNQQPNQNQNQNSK

Turning to B1, the binding result in the assay with Cft2(S), residues 1-720 [1] is recorded as “binds”.

As for B2, the binding result with Cft2(S), residues 1-720 [2] was “binds”.

B3: in assay [3], the binding result was “binds”.

B4: the binding result with Cft1 was “binds”.

For B5, the binding result in assay [4] is recorded as “binds”.
